The values below come from publication PMC3500527 (Cancer cell, 2012).

The target in assay [1] is T1, profilin-2 (immunoprecipitated from cell lysates; mass spectrometry) (UniProt P35080 1-140).
T1 sequence (looked up): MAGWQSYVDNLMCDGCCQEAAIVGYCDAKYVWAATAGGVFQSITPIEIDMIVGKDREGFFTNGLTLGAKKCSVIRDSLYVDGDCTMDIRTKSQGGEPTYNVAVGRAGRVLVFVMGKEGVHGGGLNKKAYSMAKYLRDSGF
As to the kind of experiment: co-IP.

Assay [2] deals with Cy3-mEVL1-235aa (mouse (from the label mEVL), UniProt P70429 1-235, Cy3 fluorophore (site not stated)). Briefly: AUC.
For assay [3], the target named is Cy3-hVASP1-240aa (human, UniProt P50552 1-240, Cy3 fluorophore (site not stated)). Briefly: AUC.
In assay [4] the target is T2, HA-EVL (UniProt Q9UI08 1-416).
T2 sequence (looked up): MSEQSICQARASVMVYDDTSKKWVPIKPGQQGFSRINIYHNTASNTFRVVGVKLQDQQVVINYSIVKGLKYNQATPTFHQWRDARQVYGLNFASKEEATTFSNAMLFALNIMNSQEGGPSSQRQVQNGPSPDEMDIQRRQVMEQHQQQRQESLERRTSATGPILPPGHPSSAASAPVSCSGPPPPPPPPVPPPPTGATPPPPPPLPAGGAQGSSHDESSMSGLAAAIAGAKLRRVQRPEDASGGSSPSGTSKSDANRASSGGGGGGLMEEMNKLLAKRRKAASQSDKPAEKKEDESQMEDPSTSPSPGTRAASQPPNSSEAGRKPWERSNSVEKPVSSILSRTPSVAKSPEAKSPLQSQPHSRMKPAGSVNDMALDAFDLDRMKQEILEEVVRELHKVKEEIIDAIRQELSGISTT
As to the kind of experiment: co-IP.

B1: EVL (immunoprecipitated with profilins; mass spectrometry) (natural protein, UniProt Q9UI08 1-416, looked up)
chain: MSEQSICQARASVMVYDDTSKKWVPIKPGQQGFSRINIYHNTASNTFRVVGVKLQDQQVVINYSIVKGLKYNQATPTFHQWRDARQVYGLNFASKEEATTFSNAMLFALNIMNSQEGGPSSQRQVQNGPSPDEMDIQRRQVMEQHQQQRQESLERRTSATGPILPPGHPSSAASAPVSCSGPPPPPPPPVPPPPTGATPPPPPPLPAGGAQGSSHDESSMSGLAAAIAGAKLRRVQRPEDASGGSSPSGTSKSDANRASSGGGGGGLMEEMNKLLAKRRKAASQSDKPAEKKEDESQMEDPSTSPSPGTRAASQPPNSSEAGRKPWERSNSVEKPVSSILSRTPSVAKSPEAKSPLQSQPHSRMKPAGSVNDMALDAFDLDRMKQEILEEVVRELHKVKEEIIDAIRQELSGISTT
Take B1: the “fold immunoprecipitated relative to profilin-1” value in assay [1] is 7 fold.

B2: VASP (immunoprecipitated with profilins) (natural protein, UniProt P50552 1-380, looked up)
chain: MSETVICSSRATVMLYDDGNKRWLPAGTGPQAFSRVQIYHNPTANSFRVVGRKMQPDQQVVINCAIVRGVKYNQATPNFHQWRDARQVWGLNFGSKEDAAQFAAGMASALEALEGGGPPPPPALPTWSVPNGPSPEEVEQQKRQQPGPSEHIERRVSNAGGPPAPPAGGPPPPPGPPPPPGPPPPPGLPPSGVPAAAHGAGGGPPPAPPLPAAQGPGGGGAGAPGLAAAIAGAKLRKVSKQEEASGGPTAPKAESGRSGGGGLMEEMNAMLARRRKATQVGEKTPKDESANQEEPEARVPAQSESVRRPWEKNSTTLPRMKSSSSVTTSETQPCTPSSSDYSDLQRVKQELLEEVKKELQKVKEEIIEAFVQELRKRGSP
B2: in assay [1], the “fold immunoprecipitated relative to profilin-1” value was 1.8 fold.

B3: mouse profilin-2a (natural protein, UniProt Q9JJV2 1-140, looked up)
chain: MAGWQSYVDNLMCDGCCQEAAIVGYCDAKYVWAATAGGVFQSITPVEIDMIVGKDREGFFTNGLTLGAKKCSVIRDSLYVDGDCTMDIRTKSQGGEPTYNVAVGRAGRVLVFVMGKEGVHGGGLNKKAYSMAKYLRDSGF
Regarding B3, the binding result in assay [2] and in assay [3] was “binds” throughout.

B4: profilin-2 (natural protein, human (endogenous in SUM159), UniProt P35080 1-140, looked up)
chain: MAGWQSYVDNLMCDGCCQEAAIVGYCDAKYVWAATAGGVFQSITPIEIDMIVGKDREGFFTNGLTLGAKKCSVIRDSLYVDGDCTMDIRTKSQGGEPTYNVAVGRAGRVLVFVMGKEGVHGGGLNKKAYSMAKYLRDSGF
For B4, the “fold immunoprecipitated relative to profilin-1” value in assay [4] stood at 10 fold.
